Experimental data as given in paper PMC9482650, “Quantitative fragmentomics allow affinity mapping of interactomes” (Nature Communications, 2022).

Legend:
Assay in all cases: holdup assay
Parameters in all cases: key: below the threshold = too weak to quantify, mostly under pKd 3.1 to 4
MAGI3_2, Q5TCQ9 = molecular target: MAGI3_2, Q5TCQ9
DLG4_2, P78352 = molecular target: DLG4_2, P78352
Inadl_5, Q8NI35 = molecular target: Inadl_5, Q8NI35
TJP1_3, Q07157 = molecular target: TJP1_3, Q07157
MAGI1_1, Q96QZ7 = molecular target: MAGI1_1, Q96QZ7
Inadl_1, Q8NI35 = molecular target: Inadl_1, Q8NI35
MAGI2_4, Q86UL8 = molecular target: MAGI2_4, Q86UL8
ARHGEF12, Q9NZN5-2 = molecular target: ARHGEF12, Q9NZN5-2
PARD3_3, Q8TEW0 = molecular target: PARD3_3, Q8TEW0
RAPGEF6, Q8TEU7 = molecular target: T1, RAPGEF6, Q8TEU7
T1 sequence (Q8TEU7 525-625, limits assumed, looked up): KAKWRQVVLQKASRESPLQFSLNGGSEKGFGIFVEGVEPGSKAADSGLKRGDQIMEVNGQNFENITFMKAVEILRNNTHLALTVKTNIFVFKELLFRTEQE

DFNB31_2, Q9P202 = molecular target: T2, DFNB31_2, Q9P202
T2 sequence (Q9P202 274-371, limits assumed, looked up): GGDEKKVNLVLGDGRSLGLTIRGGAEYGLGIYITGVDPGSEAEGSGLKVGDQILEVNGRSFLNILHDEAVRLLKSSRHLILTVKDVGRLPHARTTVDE

CASK, O14936 = molecular target: CASK, O14936
DLG1_1, Q12959 = molecular target: DLG1_1, Q12959
LNX2_2, Q8N448 = molecular target: T3, LNX2_2, Q8N448
T3 sequence (Q8N448 334-432, limits assumed, looked up): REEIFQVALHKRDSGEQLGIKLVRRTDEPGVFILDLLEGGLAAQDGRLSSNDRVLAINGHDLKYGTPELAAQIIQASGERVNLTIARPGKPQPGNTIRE

FRMPD2_3, Q68DX3 = molecular target: FRMPD2_3, Q68DX3
CARD11, Q9BXL7 = molecular target: T4, CARD11, Q9BXL7
T4 sequence (Q9BXL7 662-765, limits assumed, looked up): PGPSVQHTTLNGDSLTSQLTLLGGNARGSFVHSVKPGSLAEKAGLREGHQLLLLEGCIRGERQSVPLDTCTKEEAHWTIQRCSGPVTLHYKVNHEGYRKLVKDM

MPP7, Q5T2T1 = molecular target: T5, MPP7, Q5T2T1
T5 sequence (Q5T2T1 134-230, limits assumed, looked up): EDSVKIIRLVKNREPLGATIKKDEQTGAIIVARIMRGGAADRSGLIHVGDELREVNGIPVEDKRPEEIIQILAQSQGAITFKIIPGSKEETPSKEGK

DLG3_2, Q92796 = molecular target: T6, DLG3_2, Q92796
T6 sequence (Q92796 221-321, limits assumed, looked up): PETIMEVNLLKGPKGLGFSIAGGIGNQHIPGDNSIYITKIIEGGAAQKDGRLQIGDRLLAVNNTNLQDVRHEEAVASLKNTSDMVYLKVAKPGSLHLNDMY

PTPN13_1, Q12923 = molecular target: T7, PTPN13_1, Q12923
T7 sequence (Q12923 1088-1188, limits assumed, looked up): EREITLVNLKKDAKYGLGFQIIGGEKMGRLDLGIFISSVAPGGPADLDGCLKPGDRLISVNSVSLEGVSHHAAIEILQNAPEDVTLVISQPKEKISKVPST

SCRIB_2, Q14160 = molecular target: SCRIB_2, Q14160
TX1BP3, O14907 = molecular target: T8, TX1BP3, O14907
T8 sequence (O14907 10-122, limits assumed, looked up): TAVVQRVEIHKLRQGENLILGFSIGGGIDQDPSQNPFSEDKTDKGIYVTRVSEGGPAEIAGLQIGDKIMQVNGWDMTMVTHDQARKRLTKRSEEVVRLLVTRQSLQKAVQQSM

GRIP1_5, Q9Y3R0 = molecular target: T9, GRIP1_5, Q9Y3R0
T9 sequence (Q9Y3R0 568-668, limits assumed, looked up): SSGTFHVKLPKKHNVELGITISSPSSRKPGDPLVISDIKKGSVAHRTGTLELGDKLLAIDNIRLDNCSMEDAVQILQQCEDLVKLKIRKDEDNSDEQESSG

GRID2IP_1, A4D2P6 = molecular target: GRID2IP_1, A4D2P6
SYNJ2BP, P57105 = molecular target: T10, SYNJ2BP, P57105
T10 sequence (P57105 8-110, limits assumed, looked up): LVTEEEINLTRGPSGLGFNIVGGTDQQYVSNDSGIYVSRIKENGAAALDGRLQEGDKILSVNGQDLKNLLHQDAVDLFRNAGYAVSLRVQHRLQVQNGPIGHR

GRIP1_2, Q9Y3R0 = molecular target: T11, GRIP1_2, Q9Y3R0
T11 sequence (Q9Y3R0 145-248, limits assumed, looked up): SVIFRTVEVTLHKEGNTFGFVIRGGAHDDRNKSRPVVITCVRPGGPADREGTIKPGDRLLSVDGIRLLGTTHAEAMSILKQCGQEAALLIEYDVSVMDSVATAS

MAGI2_2, Q86UL8 = molecular target: MAGI2_2, Q86UL8
[1] = plain residues with an end cap or a label only (N-terminal biotin on a linker: ttds)
[2] = plain residues with an end cap or a label only (N-terminal biotin on a linker: ahx)

Sequence of GRID2IP_1, A4D2P6 (A4D2P6 1-87): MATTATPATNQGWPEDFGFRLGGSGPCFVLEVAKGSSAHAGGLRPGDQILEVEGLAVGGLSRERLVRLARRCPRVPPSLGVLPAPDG
Sequence of MAGI3_2, Q5TCQ9 (Q5TCQ9 398-503): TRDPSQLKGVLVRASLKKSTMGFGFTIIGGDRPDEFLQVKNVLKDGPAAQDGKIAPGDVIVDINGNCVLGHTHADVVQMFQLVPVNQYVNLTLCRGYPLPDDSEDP
Sequence of Inadl_5, Q8NI35 (Q8NI35 673-780): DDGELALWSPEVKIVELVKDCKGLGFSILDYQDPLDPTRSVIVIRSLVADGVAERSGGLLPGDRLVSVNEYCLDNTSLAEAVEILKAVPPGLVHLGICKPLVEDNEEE
Sequence of CASK, O14936 (O14936 487-570): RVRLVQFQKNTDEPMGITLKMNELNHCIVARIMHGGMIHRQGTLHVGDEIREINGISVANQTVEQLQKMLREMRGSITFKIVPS
Sequence of DLG4_2, P78352 (P78352 155-259): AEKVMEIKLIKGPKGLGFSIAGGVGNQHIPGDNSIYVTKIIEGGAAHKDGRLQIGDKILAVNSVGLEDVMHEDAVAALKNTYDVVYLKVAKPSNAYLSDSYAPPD
Sequence of MAGI2_2, Q86UL8 (Q86UL8 410-522): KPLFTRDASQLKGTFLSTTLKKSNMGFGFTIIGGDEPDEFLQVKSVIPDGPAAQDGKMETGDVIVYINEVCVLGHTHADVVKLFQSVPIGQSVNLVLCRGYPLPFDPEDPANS
Sequence of FRMPD2_3, Q68DX3 (Q68DX3 1073-1166): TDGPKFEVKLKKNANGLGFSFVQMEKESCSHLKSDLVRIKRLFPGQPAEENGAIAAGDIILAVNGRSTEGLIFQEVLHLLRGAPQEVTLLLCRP
Sequence of MAGI1_1, Q96QZ7 (Q96QZ7 1-106): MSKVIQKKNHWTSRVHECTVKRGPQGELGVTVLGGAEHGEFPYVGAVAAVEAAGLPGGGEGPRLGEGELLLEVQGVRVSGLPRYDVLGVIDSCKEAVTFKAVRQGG
Sequence of ARHGEF12, Q9NZN5-2 (Q9NZN5 other isoform, or with tags, fused parts or gaps): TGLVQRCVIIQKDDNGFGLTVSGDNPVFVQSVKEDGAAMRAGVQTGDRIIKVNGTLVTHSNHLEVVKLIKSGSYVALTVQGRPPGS
Sequence of SCRIB_2, Q14160 (Q14160 857-960): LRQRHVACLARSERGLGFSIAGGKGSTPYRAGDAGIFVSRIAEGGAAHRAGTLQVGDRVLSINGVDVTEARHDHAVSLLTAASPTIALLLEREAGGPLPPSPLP
Sequence of PARD3_3, Q8TEW0 (Q8TEW0 582-685): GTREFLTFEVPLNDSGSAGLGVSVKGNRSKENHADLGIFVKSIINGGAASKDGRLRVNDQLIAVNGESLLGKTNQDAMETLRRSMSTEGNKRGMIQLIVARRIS
Sequence of Inadl_1, Q8NI35 (Q8NI35 113-229): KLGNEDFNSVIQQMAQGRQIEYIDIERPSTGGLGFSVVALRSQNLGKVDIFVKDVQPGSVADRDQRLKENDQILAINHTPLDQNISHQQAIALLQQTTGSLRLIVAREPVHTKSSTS
Sequence of MAGI2_4, Q86UL8 (Q86UL8 772-865): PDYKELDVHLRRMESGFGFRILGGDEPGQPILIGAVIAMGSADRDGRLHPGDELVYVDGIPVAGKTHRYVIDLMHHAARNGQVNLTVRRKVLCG
Sequence of TJP1_3, Q07157 (Q07157 416-512): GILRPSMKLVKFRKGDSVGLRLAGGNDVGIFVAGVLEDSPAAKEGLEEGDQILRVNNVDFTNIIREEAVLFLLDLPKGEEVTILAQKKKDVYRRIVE

For SRPQRTQTQV [HPV67-E6, A4U7F2], the pKd (MAGI3_2, Q5TCQ9; [1]) was 5.42, the pKd (DLG4_2, P78352; [1]) was 4.96 and the pKd (Inadl_5, Q8NI35; [1]) was “below the threshold”. The pKd (TJP1_3, Q07157; [1]) was “below the threshold”, the pKd (MAGI1_1, Q96QZ7; [1]) was “below the threshold” and the pKd (Inadl_1, Q8NI35; [1]) was “below the threshold”. For the same binder, the pKd (MAGI2_4, Q86UL8; [1]) was 4.14, the pKd (ARHGEF12, Q9NZN5-2; [1]) was 4 and the pKd (PARD3_3, Q8TEW0; [1]) was “below the threshold”. The pKd (RAPGEF6, Q8TEU7; [1]) was “below the threshold”, the pKd (DFNB31_2, Q9P202; [1]) was “below the threshold” and the pKd (CASK, O14936; [1]) was “below the threshold”. The pKd (DLG1_1, Q12959; [1]) was 4.52, the pKd (LNX2_2, Q8N448; [1]) was 3.6 and the pKd (FRMPD2_3, Q68DX3; [1]) was “below the threshold”. The pKd (CARD11, Q9BXL7; [1]) was “below the threshold”, the pKd (MPP7, Q5T2T1; [1]) was “below the threshold” and the pKd (DLG3_2, Q92796; [1]) was 5.06. For the same binder, the pKd (PTPN13_1, Q12923; [1]) was “below the threshold”, the pKd (SCRIB_2, Q14160; [1]) was 3.4 and the pKd (TX1BP3, O14907; [1]) was 4.03. For the same binder, the pKd (GRIP1_5, Q9Y3R0; [1]) was “below the threshold”, the pKd (GRID2IP_1, A4D2P6; [1]) was “below the threshold” and the pKd (SYNJ2BP, P57105; [1]) was 4.4. The pKd (GRIP1_2, Q9Y3R0; [1]) was “below the threshold” and the pKd (MAGI2_2, Q86UL8; [1]) was 5.32.

With RSLEEEESQL [GRASP, Q7Z6J2] the pKd (MAGI3_2, Q5TCQ9; [1]) was 3.81, the pKd (DLG4_2, P78352; [1]) was 3.84 and the pKd (Inadl_5, Q8NI35; [1]) was “below the threshold”. For the same binder, the pKd (TJP1_3, Q07157; [1]) was “below the threshold”, the pKd (MAGI1_1, Q96QZ7; [1]) was “below the threshold” and the pKd (Inadl_1, Q8NI35; [1]) was “below the threshold”. It also gave a pKd (MAGI2_4, Q86UL8; [1]) of 3.7, a pKd (ARHGEF12, Q9NZN5-2; [1]) of 3.56 and a pKd (PARD3_3, Q8TEW0; [1]) of 4.13. The pKd (RAPGEF6, Q8TEU7; [1]) was 3.56, the pKd (DFNB31_2, Q9P202; [1]) was 3.83 and the pKd (CASK, O14936; [1]) was “below the threshold”. The pKd (DLG1_1, Q12959; [1]) was “below the threshold”, the pKd (LNX2_2, Q8N448; [1]) was “below the threshold” and the pKd (FRMPD2_3, Q68DX3; [1]) was 4.08. The pKd (CARD11, Q9BXL7; [1]) was 3.81, the pKd (MPP7, Q5T2T1; [1]) was “below the threshold” and the pKd (DLG3_2, Q92796; [1]) was 3.63. For the same binder, the pKd (PTPN13_1, Q12923; [1]) was 3.63, the pKd (SCRIB_2, Q14160; [1]) was 3.87 and the pKd (TX1BP3, O14907; [1]) was 3.84. For the same binder, the pKd (GRIP1_5, Q9Y3R0; [1]) was 3.87, the pKd (GRID2IP_1, A4D2P6; [1]) was “below the threshold” and the pKd (SYNJ2BP, P57105; [1]) was 3.86. For the same binder, the pKd (GRIP1_2, Q9Y3R0; [1]) was “below the threshold” and the pKd (MAGI2_2, Q86UL8; [1]) was “below the threshold”.

HTHSYIETHV [CNKSR2, Q8WXI2] was tested, and the pKd (MAGI3_2, Q5TCQ9; [2]) was 4.69, the pKd (DLG4_2, P78352; [2]) was 4.98 and the pKd (Inadl_5, Q8NI35; [2]) was “below the threshold”. For the same binder, the pKd (TJP1_3, Q07157; [2]) was “below the threshold”, the pKd (MAGI1_1, Q96QZ7; [2]) was “below the threshold” and the pKd (Inadl_1, Q8NI35; [2]) was “below the threshold”. The pKd (MAGI2_4, Q86UL8; [2]) was “below the threshold”, the pKd (ARHGEF12, Q9NZN5-2; [2]) was 3.88 and the pKd (PARD3_3, Q8TEW0; [2]) was “below the threshold”. The pKd (RAPGEF6, Q8TEU7; [2]) was “below the threshold”, the pKd (DFNB31_2, Q9P202; [2]) was 3.76 and the pKd (CASK, O14936; [2]) was “below the threshold”. For the same binder, the pKd (DLG1_1, Q12959; [2]) was 4.62, the pKd (LNX2_2, Q8N448; [2]) was 3.99 and the pKd (FRMPD2_3, Q68DX3; [2]) was 3.87. The pKd (CARD11, Q9BXL7; [2]) was “below the threshold”, the pKd (MPP7, Q5T2T1; [2]) was “below the threshold” and the pKd (DLG3_2, Q92796; [2]) was 5.04. For the same binder, the pKd (PTPN13_1, Q12923; [2]) was “below the threshold”, the pKd (SCRIB_2, Q14160; [2]) was 5.31 and the pKd (TX1BP3, O14907; [2]) was 5.47. The pKd (GRIP1_5, Q9Y3R0; [2]) was “below the threshold”, the pKd (GRID2IP_1, A4D2P6; [2]) was “below the threshold” and the pKd (SYNJ2BP, P57105; [2]) was 5.02. For the same binder, the pKd (GRIP1_2, Q9Y3R0; [2]) was “below the threshold” and the pKd (MAGI2_2, Q86UL8; [2]) was 4.37.
